From the supplement of paper PMC10567573

B1: TEKT4 (parent)
chain: YARYHQAFADRDQSERQRHESQQL
B2: TBX6 (parent)
chain: AFLELPHGSGGSGYPAAPPAVPFA

Variants of: B1
Test: protein stability index of a GFP-peptide fusion (GPS, HEK-293T) (PSI 1-6); higher = more stable
Settings: c terminus: a fixed tail appended
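Note: lentivirally expressed fusions sorted by FACS into six bins by GFP to DsRed ratio, PSI derived from sequencing read proportions per bin multiplied by bin number.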

Protein stability index of substitutions, site by site:
L24: Y 2.12; M 2.21; N 2.23; P 1.64; V 1.57; S 2.27; T 2.15; E 2.24; R 1.68; K 1.73; C 1.67; F 2.37; W 1.85; I 2.03; G 2.37; D 2.14; A 1.88; Q 2.57; H 2.42
Q22: P 2.17; H 2.36; T 1.63; L 1.82; Y 1.65; D 2.17; G 1.85; V 1.79; C 1.57; A 1.8; W 1.43; N 2.1; R 1.85; K 2.17; M 2.2; S 1.92; I 1.66; E 2.25; F 1.9
S21: R 2.46; Y 1.29; F 1.59; A 2.01; C 2.77; P 2.39; K 1.46; Q 1.59; H 1.99; L 1.83; V 2.16; D 1.78; W 1.69; M 1.65; I 2.41; N 1.98; G 2.32; E 2.5; T 3.06
Q23: A 1.84; H 2.34; V 1.68; F 1.44; E 1.97; N 1.91; C 2.11; W 1.7; P 1.92; T 1.85; Y 2.19; D 2.37; G 2.01; I 1.66; S 2.41; K 3; L 2.63; R 2.65; M 1.94
E20: W 1.51; T 2.27; M 1.74; H 2.22; Q 1.53; I 1.57; V 2.21; G 2.19; Y 2.06; K 2.06; N 2.18; S 2.3; P 2.23; R 2.13; L 1.64

Variants of: B2
Test: as above
Settings: c terminus: a fixed tail appended

Protein stability index of substitutions, site by site:
A20: R 2.56; L 2.21; H 2.38; G 2.73; T 2.42; N 2.69; C 2.68; V 1.84; K 2.85; I 2.11; W 2.46
V21: D 3.46; S 2.59; E 3.02; L 2.58; G 3.31; Y 2.12; R 2.64; N 2.64; M 2.36
E4: P 3.3; V 1.9; I 3.55; C 2.17; Q 1.93; M 1.56; K 1.68; F 1.4; T 2.03; D 2.42; Y 2.2; G 2.13
S9: K 1.94; P 2.61; W 2.31; E 2.58; R 2.68; V 2.17; H 2.02; Y 2.21; L 1.93; T 2.1
L5: Q 2.83; V 2.59; Y 2.39; F 2.29; E 2.83; G 3.25; C 2.51; M 2.69; K 2.59; R 2.71; I 2.43; A 2.79; S 2.8
P19: G 2.38; E 2.78; S 2.13; R 2.17; C 2.05; V 2.13; M 2.19; A 2.72; T 2.37
S12: A 2.33; P 2.08; E 2.74; T 2.4; Q 2.29; M 2; W 2.55; Y 1.63; F 1.91
P18: G 2.39; T 2.41; H 2.23; D 2.61; R 2.17; C 2.4; I 2.29; W 2.03; F 1.96; A 1.94; Q 2.22; S 2.55
A17: D 2.85; S 2.46; G 2.03; L 2.57; K 2.4; I 2.65; F 1.99; E 2.97; C 2.61
P6: Q 2; I 2.85; M 2.29; F 2.09; Y 2.36; G 1.62; E 2.62; H 1.95; N 2.14; K 2.37; L 2.4
L3: S 2.87; K 3.45; Y 2.08; I 2.28; D 3.96; M 2.41; Q 3.43; A 3.14; E 3.66
A24: I 2.23; L 1.6; H 1.92; G 2.56; F 1.54; E 3.4; S 2.63; C 1.53
P15: K 2.15; E 3.03; H 1.93; V 2.08; N 2.48; T 2.56; Q 2.01; L 1.94; D 2.81
H7: D 2.9; E 2.83; W 1.56; V 2.45; A 2.29; I 2.39; S 2.4
F23: W 2.18; V 2.89; T 3; Q 3.7; E 3.56; K 3.38; R 3.3; S 3.21; M 2.62
G11: E 2.77; F 2.19; M 2.01; C 1.9; P 2.28; H 2.15; V 2.12; I 2.23; N 2.07; Y 1.95; R 2.3; L 1.93; W 2.32; T 2.11
A1: C 1.41; H 3.13; F 1.89; T 2.71; G 2.84; M 1.61; S 2.08; V 1.78; L 2.07; E 3.11; N 2.83
G10: A 2.24; C 2.55; P 2.44; H 2.34; M 2.3; S 2.7; F 2.36
Y14: I 2.65; R 3.03; L 2.85; W 2.21; G 3.04; M 2.84; E 3.8; F 2.77; D 3.33; Q 3.06
G8: K 2.42; L 1.96; P 2.21; Q 2.02; I 1.88; C 2.19; E 3.31; N 2.53; V 1.68; F 1.71; D 2.75; S 2.71; A 2.86
F2: C 3.58; V 3.2; D 3.93; Q 3.65; M 2.83; E 4.25; H 3.88; R 3.22; N 4.05; P 4.04
G13: L 1.83; C 2.83; I 2.51; V 2.42; A 2.87; D 3.02; H 2.23; M 2.07; Q 2.89
A16: I 2.24; K 2.99; H 2.21; Y 2.46; S 2.22; C 1.61; G 2.09; F 2.18; M 2.17; T 2.63; V 2.19; E 3.49
P22: A 2.14; L 1.4; N 1.89; H 2.46; D 3.29; K 2.19; S 2.18; M 2.02; T 1.86; G 2.42
